Data reported in doi:10.1101/2022.07.21.501072 (bioRxiv, 2022).

Target: the molecule itself
Test: semi-denaturing SDS-PAGE

| Protein | stoichiometry N |
| --- | --- |
| IcsA passenger C375S (secreted) (domain or fragment, Shigella flexneri, UniProt Q7BCK4 53-758, looked up) TPLSGTQELHFSEDNYEKLLTPVDGLSPLGAGEDGMDAWYITSSNPSHASRTKLRINSDIMISAGHGGAGDNNDGNSCGGNGGDSITGSDLSIINQGMILGGSGGSGADHNGDGGEAVTGDNLFIINGEIISGGHGGDSYSDSDGGNGGDAVTGVNLPIINKGTISGGNGGNNYGEGDGGNGGDAITGSSLSVINKGTFAGGNGGAAYGYGYDGYGGNAITGDNLSVINNGAILGGNGGHWGDAINGSNMTIANSGYIISGKEDDGTQNVAGNAIHITGGNNSLILHEGSVITGDVQVNNSSILKIINNDYTGTTPTIEGDLSAGDCTTVSLSGNKFTVSGDVSFGENSSLNLAGISSLEASGNMSFGNNVKVEAIINNWAQKDYKLLSADKGITGFSVSNISIINPLLTTGAIDYTKSYISDQNKLIYGLSWNDTDGDSHGEFNLKENAELTVSTILADNLSHHNINSWDGKSLTKSGEGTLILAEKNTYSGFTNINAGILKMGTVEAMTRTAGVIVNKGATLNFSGMNQTVNTLLNSGTVLINNINAPFLPDPVIVTGNMTLEKNGHVILNNSSSNVGQTYVQKGNWHGKGGILSLGAVLGNDNSKTDRLEIAGHASGITYVAVTNEGGSGDKTLEGVQIISTDSSDKNAFIQKGRIVAGSYDYRLKQGTVSGLNTNKWYLTSQMDNQESKQMSNQESTQMSSR | 2 |
| IcsA passenger C379S (secreted) (domain or fragment, Shigella flexneri, UniProt Q7BCK4 53-758, looked up) TPLSGTQELHFSEDNYEKLLTPVDGLSPLGAGEDGMDAWYITSSNPSHASRTKLRINSDIMISAGHGGAGDNNDGNSCGGNGGDSITGSDLSIINQGMILGGSGGSGADHNGDGGEAVTGDNLFIINGEIISGGHGGDSYSDSDGGNGGDAVTGVNLPIINKGTISGGNGGNNYGEGDGGNGGDAITGSSLSVINKGTFAGGNGGAAYGYGYDGYGGNAITGDNLSVINNGAILGGNGGHWGDAINGSNMTIANSGYIISGKEDDGTQNVAGNAIHITGGNNSLILHEGSVITGDVQVNNSSILKIINNDYTGTTPTIEGDLCAGDSTTVSLSGNKFTVSGDVSFGENSSLNLAGISSLEASGNMSFGNNVKVEAIINNWAQKDYKLLSADKGITGFSVSNISIINPLLTTGAIDYTKSYISDQNKLIYGLSWNDTDGDSHGEFNLKENAELTVSTILADNLSHHNINSWDGKSLTKSGEGTLILAEKNTYSGFTNINAGILKMGTVEAMTRTAGVIVNKGATLNFSGMNQTVNTLLNSGTVLINNINAPFLPDPVIVTGNMTLEKNGHVILNNSSSNVGQTYVQKGNWHGKGGILSLGAVLGNDNSKTDRLEIAGHASGITYVAVTNEGGSGDKTLEGVQIISTDSSDKNAFIQKGRIVAGSYDYRLKQGTVSGLNTNKWYLTSQMDNQESKQMSNQESTQMSSR | 2 |
| IcsA passenger C375S/C379S double mutant (secreted) (domain or fragment, Shigella flexneri, UniProt Q7BCK4 53-758, looked up) TPLSGTQELHFSEDNYEKLLTPVDGLSPLGAGEDGMDAWYITSSNPSHASRTKLRINSDIMISAGHGGAGDNNDGNSCGGNGGDSITGSDLSIINQGMILGGSGGSGADHNGDGGEAVTGDNLFIINGEIISGGHGGDSYSDSDGGNGGDAVTGVNLPIINKGTISGGNGGNNYGEGDGGNGGDAITGSSLSVINKGTFAGGNGGAAYGYGYDGYGGNAITGDNLSVINNGAILGGNGGHWGDAINGSNMTIANSGYIISGKEDDGTQNVAGNAIHITGGNNSLILHEGSVITGDVQVNNSSILKIINNDYTGTTPTIEGDLSAGDSTTVSLSGNKFTVSGDVSFGENSSLNLAGISSLEASGNMSFGNNVKVEAIINNWAQKDYKLLSADKGITGFSVSNISIINPLLTTGAIDYTKSYISDQNKLIYGLSWNDTDGDSHGEFNLKENAELTVSTILADNLSHHNINSWDGKSLTKSGEGTLILAEKNTYSGFTNINAGILKMGTVEAMTRTAGVIVNKGATLNFSGMNQTVNTLLNSGTVLINNINAPFLPDPVIVTGNMTLEKNGHVILNNSSSNVGQTYVQKGNWHGKGGILSLGAVLGNDNSKTDRLEIAGHASGITYVAVTNEGGSGDKTLEGVQIISTDSSDKNAFIQKGRIVAGSYDYRLKQGTVSGLNTNKWYLTSQMDNQESKQMSNQESTQMSSR | 2 |
